# Laboratory results published in US20240150805A1, “Glycosylated Opioids” (River Stone Biotech ApS, priority 2021, published 2024).
# B1: Qs72S_1: subfamily 72 UGT (glycosyltransferase) from Quercus suber (protein)
# chain: MEQKPHIALLPSPGMGHLIPLVEFAKQFVLHHDFHITCIIPVLGSPSKAMKAVLQALPTTIDHVFLPPVILEEEEIKGLKFEVQTILTLTRSLPPLREVLKTTRFSAFVVDPFGIDALDIAKELNISPYIFFPSNAFALSLIFHLPKLDETVSCEYRDLPEPLKLPGCIPIHGRDLIEPVQDRTSELYKMFLRNAKRFRLAEGIIVNTFMELEGSAIKALLDEEAKNLPLYPIGPIQSGSSNLQVDKSVSDCLRWLDNQPHGSVLFVCFGSGGTLSYDQTNELALGLELSGQKFLWVVRTPNNESADAAYLSDQILDNNPLDFLPKGFVERTEGQGLAVPSWAPQAQVLSHGSTGGFLTHCGWNSTLESIMQGIPLIAWPLYAEQKMNAPLLAEDLKVALRPKTNKSGLIDQEEIAKVVKGLMIGEEGKKVYNRMKDIKMAAEKALSADGSSTKALSELASQWKNHPGF
# modifications: Quercus suber
# notes: subfamily 72 UGT (glycosyltransferase) from Quercus suber
# B2: XP_030967178: subfamily 72 UGT, sequence homolog of Qs72S_1 (protein, listed as Quercus lobata)
# chain: MEQKPHIALLPSPGMGHLIPLVELAKLLLLHHDFHITCIIPVLGSPSKAMKAVLQALPTSIDNVFLPPVILEEEEIKGLKLEVQAMLTLTRSLPPLRDVLKSTRFSAFVVDPFGIDALDIAKELNISPYIFFSSNAFALSLVLHLPKLDETVPCEYRDLPEPVKLPGCIPIHGRDLIEPVQDRTSELYKMFLTNAKRYRLAEGIIVNTFMELEGSAIKAMLEEEAKNLPLFPVGPIQSGSSNQVDKLESDCLSWLDNQPHGSVLFVCFGSGGTLSYEQTNELALGLELSGQKFIWVVRTPNNESADATYLSDQNLGDNPLAFLPKGFVERTKGQGLVVPLWAPQAQVLSHGSTGGFLTHCGWNSTLESIMQGIPLIVWPLFAEQKMNAALLAEDLKVALRPKTDKNGLIDREEIAKVVKGLMVGEEGKKVHNRMEDIKIAAEKALSADGSSTKALSKLATQWKNHPDF
# B3: XP_023876189: subfamily 72 UGT, sequence homolog of Qs72S_1 (protein)
# chain: MEQKPHIAILPSPGMGHLIPFVEFAKLLLLHHDFHITCIIPTIGSPSKAMREVLQALPTSIDHVFLPPVSLEELGGVKPGIQITLTMIRSLPPLREVLTSLVATTRLVALVVDLFGTDALDVAKELNVSPYIFYPTNAMVVSLVLHLPKLDETVSCEYRDLPEPVKLPGCVPIHGRDLLDPIQDRTTELYKLFLRGAKWLRLVEGIIVNTFMELDGNVIKALEDEEAKSGTIYTIGPIIQSSSTKHVEGSDGLRWLDNQPRGSVLFVCFGSGGTLSYDQMKELALGLELSKQKFLWVVRSPNNELAQAAYFSDQTLDNNPLSFLPVGFIERTKEQGLVVPSWAPQAQVLSHDSTGGFLSHCGWNSTLESIMQGIPLIAWPLFAEQRMNALLLTEDLKVALRPKANEKNLVDREEIAKVIKSLMVGEDGKKIHSRMKDLKIAAEKALSPNGPSTKALADLASHWTNQSNS
# modifications: Quercus suber
# B4: SrUGT71E1: subfamily 71 UGT from Stevia rebaudiana (protein, listed as Stevia rebaudiana)
# chain: MSTSELVFIPSPGAGHLPPTVELAKLLLHRDQRLSVTIIVMNLWLGPKHNTEARPCVPSLRFVDIPCDESTMALISPNTFISAFVEHHKPRVRDIVRGIIESDSVRLAGFVLDMFCMPMSDVANEFGVPSYNYFTSGAATLGLMFHLQWKRDHEGYDATELKNSDTELSVPSYVNPVPAKVLPEVVLDKEGGSKMFLDLAERIRESKGIIVNSCQAIERHALEYLSSNNNGIPPVFPVGPILNLENKKDDAKTDEIMRWLNEQPESSVVFLCFGSMGSFNEKQVKEIAVAIERSGHRFLWSLRRPTPKEKIEFPKEYENLEEVLPEGFLKRTSSIGKVIGWAPQMAVLSHPSVGGFVSHCGWNSTLESMWCGVPMAAWPLYAEQTLNAFLLVVELGLAAEIRMDYRTDTKAGYDGGMEVTVEEIEDGIRKLMSDGEIRNKVKDVKEKSRAAVVEGGSSYASIGKFIEHVSNVTI
# B5: PWA37695: subfamily 73 UGT (protein, listed as Artemisia annua)
# chain: MVAPSTELHFVMFPLMAQGHIVPMVDIARILAEKGATVTIFATPLVANRFRPVISRAIEAKLKIQILELELQVAKVGLPEGCQSFEKLPSSDSSAKLFAAMDLLEQPAEDLVRKLSPPPDCIISDFLFPWTTDMARRFNIPRLVFHGPGCFWLVCMHAVFSSDKFKTIKLEEKFMLPGLPDQVEVTKLQITGTKEIKPEQMGFWVRATEAEKAAYGTVVHTFYELEPEYVKEYSKVKDTKVWCIGPVALSNKANLDIAERGNKAAINEHDCLKWLDEKEPGSVFYVCLGSITRLSTEQAIEIALGLESTNQPFLWFLRNKTQELEKWFSEVGFEERVKDRGLIVHGWAPQILILSHCAVGGFLTHCGWNSTLEGVSFGVPMVTWPHFADQFLNETFIVEILKIGVRIGVDIPELYGEEDKLEALVKKEDVKRAVECLMDKEDKEAKQRRKRARKLAEMAKRAMAEGGSSYVNVSSLIQDITEFRNTQRLNRLHV
# B6: KAF3968554: subfamily 72 UGT, sequence homolog of Qs72S_1 (protein, listed as Castanea mollissima)
# chain: MEQKPHIGILPSPGMGHLIPLVEFAKLLVHHHDFNITCIIPVLGSPSKAMKAVLHALPTTIDHVFLPPVILEEEEMKGPRFEVQTILTLTRSLPPLRDVLKSTRFSAFVVDPFGIDALDIAKELNISPYIFFPTNAFALSLIFHLPKLDETVSCEYRDLPEPLKLPGCIPIHGRDLAEPFQNRTSESYKMFLRIAKRFRLAEGIIVNTFMGLEGSAIKALLEEEAKNLPLYPVGPIQSGSSNQVEESDCLRWLGNQPHGSVLFVCFGSGGTLSYDQTNELALGLELSGQKFLWVVRTPNNESADAAYLSDQTLYNNPLAFLPKGFVERTEGQGLAVPSWAPQAQVLSHGSTGGFLTHCGWNSSLESIMQGIPLIAWPLYAEQKMNAVLLAEDLKVALRPKTNKNGLIDREEIAKVVKGLMDGEEGKKVRNRMKDIKIAAEKALNVDGSSTKTLSKLASKWKNHSSF
# B7: XP_023905565: subfamily 72 UGT, sequence homolog of Qs72S_1 (protein)
# chain: MEQKPHIALLPSPGMGHLVPLVELAKLLLLHHDFHITCIIPVLGSPSKAMKAVLQALPTSIDHVFLPPVILEEEEIKGLKLEVQAMLTLTRSLPPLRDVLKSTRFSAFVVDPFGIDALDIAKELNISPYIFFPSNAFALSLVLHLPKLDETVSCEYRDLPEPIKLPGCITIHGRDLLEPVQDRTSELYKMFLSNTKRYRLAEGIIVNTFMELEGSAIKALLEEEAKNLPLFPVGPIQSGSSNQVDKSESDCLRWLDNQPHGSVLFVCFGSGGTLSYDQTNELALGLELSGQKFIWVVRTPNNESADATYLSDQTLGNNPLAFLPKGFVERTKGQGLVVPFWAPQAQVLSHGSTGGFLTHCGWNSTLESIMQGIPLIVWPLFAEQKMNAALLAEDLKVALRPKTNKNGRIDREEITKVVKGLMVGEEGKKVRNRMKDIKIAAEKALSADGSSTKALSKLATQWKNHSDF
# modifications: Quercus suber
# Assay: In vitro glucosylation of oripavine and nororipavine by purified UGTs
# Format: biochemical
# Details: 72UGTs, test setup of example 3, FIG. 8
# Protocol: Glucosylation samples of a 20 μL total reaction volume for each UGT to be tested were prepared in 96-well microtiter plates as follows:
# The microtiter plate was sealed with an adhesive seal, spun shortly and the glucosylation samples were incubated overnight at 30° C. After incubation, glucosylation reaction was terminated by adding 3 volumes (60 μL) of ice-cold 100% methanol the reaction volume and mixing well, followed by centrifugation of the plate at 3000 rpm for 5 min at 4° C. and analysis by HPLC.
# The 72UGTs of Table 5 were tested in vitro to using the test setup of example 3 identify those having having specificity toward nororipavine.
Molecule,glucosylation activity,specificity for nororipavine compared to oripavine
B1,high activity,particularly high specificity
B2,–,particularly high specificity
B3,–,particularly high specificity

# Same assay, conditions: purified UGT, 500 μM substrate, overnight at 30° C., HPLC
row,Molecule,preference for nororipavine glucosylation compared to oripavine glucosylation
1,B4,preference for glucosylation of nororipavine
2,B5,very strong preference for oripavine glucosylation
3,B1,particularly strong preference for Nororipavine glucosylation
4,B6,particularly strong preference for Nororipavine glucosylation
5,B7,particularly strong preference for Nororipavine glucosylation
6,B2,particularly strong preference for Nororipavine glucosylation
7,B3,particularly strong preference for Nororipavine glucosylation
